These results are taken from patent US20210246166A1 (Bayer, published 2021).

Assay [1] addresses T1, recombinant human MASP1 active protease (amino acids 297-699, C-terminal His Tag) (human, UniProt P48740 297-699).
T1 sequence: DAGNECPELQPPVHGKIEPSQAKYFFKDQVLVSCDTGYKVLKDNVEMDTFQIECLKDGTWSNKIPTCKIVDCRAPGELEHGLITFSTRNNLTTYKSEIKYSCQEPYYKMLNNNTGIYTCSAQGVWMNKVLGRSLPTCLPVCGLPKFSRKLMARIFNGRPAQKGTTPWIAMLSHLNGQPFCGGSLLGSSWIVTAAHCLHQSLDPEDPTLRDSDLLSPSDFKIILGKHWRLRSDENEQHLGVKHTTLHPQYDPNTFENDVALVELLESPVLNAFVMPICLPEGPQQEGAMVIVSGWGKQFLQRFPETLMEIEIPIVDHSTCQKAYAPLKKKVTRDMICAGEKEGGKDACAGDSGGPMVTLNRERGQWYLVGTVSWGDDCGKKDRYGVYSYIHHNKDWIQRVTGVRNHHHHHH
In words: cell-based or functional assay.

Assay [2] has as its target recombinant human MASP2 active protease (amino acids 297-686, C-terminal His Tag) (human, UniProt O00187 297-686). In words: cell-based or functional assay.

Numbered stars: 1 amine (or outer) side, 2 acyl side, 3 side chain; on linkers, the order of the positions; unused ones are H or OH. Bridge positions count the residues as written; N and C are the ends. Square brackets hold non-standard residues; d marks the D form. Primed or numbered codes have the meaning given here. Ends that are not written are not given here. TTDS = 1,13-diamino-4,7,10-trioxatridecan-succinamic acid, O=C(CCC(=O)[*:2])NCCCOCCOCCOCCCN[*:1]; Oic = O=C(O)[C@@H]1C[C@@H]2CCCC[C@@H]2N1; Pro‑D2″ = L-Proline (3,4-2H), deuterated; PEG6 = NCCOCCOCCOCCOCCOCCOCCC(=O)O; tBuAla = CC(C)(C)C[C@H](N)C(=O)O; PEG5 = NCCOCCOCCOCCOCCOCCC(=O)O; Pen = CC(C)(S)[C@H](N)C(=O)O; NMeA = CN[C@@H](C)C(=O)O; Orn = NCCC[C@H](N)C(=O)O; Sar = CNCC(=O)O

Sequence of recombinant human MASP2 active protease (amino acids 297-686, C-terminal His Tag) (O00187 other isoform, or with tags, fused parts or gaps limits assumed): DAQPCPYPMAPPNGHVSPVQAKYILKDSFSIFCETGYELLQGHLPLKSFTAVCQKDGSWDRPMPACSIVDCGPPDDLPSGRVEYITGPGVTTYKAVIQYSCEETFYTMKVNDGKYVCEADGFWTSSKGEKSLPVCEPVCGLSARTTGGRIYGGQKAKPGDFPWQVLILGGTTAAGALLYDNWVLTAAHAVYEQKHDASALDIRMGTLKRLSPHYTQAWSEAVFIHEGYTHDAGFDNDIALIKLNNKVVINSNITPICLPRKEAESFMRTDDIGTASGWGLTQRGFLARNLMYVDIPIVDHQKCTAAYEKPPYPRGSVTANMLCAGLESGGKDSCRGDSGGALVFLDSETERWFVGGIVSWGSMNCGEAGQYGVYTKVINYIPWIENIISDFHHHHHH

Regarding [2‑(Diethylamino)acetyl]ICSRS[tBuAla]PPI[Pen]IPD-NH2 (disulfide 3-11) [(2-(Diethylamino)acetyl)-IC+SRS-((tBu)A)-PPI-(Pen)+IPD-NH2], in assay [1], the “human MASP1 IC50” value came out at 3.5 nM. The “human MASP2 IC50” value in assay [2] was 98 nM.

B1: ((N-Me)G)-IC+SRSLP-(Oic)-I-(Pen)+IP-(TTDS)-NH2 (peptide)
peptide: [Sar]ICSRSLP[Oic]I[Pen]IP[TTDS]-NH2
modifications: disulfide 3-11; N-terminus assumed
SMILES: CC[C@H](C)[C@H](NC(=O)CNC)C(=O)N[C@H]1CSSC(C)(C)[C@@H](C(=O)N[C@H](C(=O)N2CCC[C@H]2C(=O)NCCCOCCOCCOCCCNC(=O)CCC(N)=O)[C@@H](C)CC)NC(=O)[C@H]([C@@H](C)CC)NC(=O)[C@@H]2C[C@@H]3CCCC[C@@H]3N2C(=O)[C@@H]2CCCN2C(=O)[C@H](CC(C)C)NC(=O)[C@H](CO)NC(=O)[C@H](CCCNC(=N)N)NC(=O)[C@H](CO)NC1=O
As to B1, the “human MASP1 IC50” value in assay [1] is 3.4 nM. For the same molecule, the “human MASP2 IC50” value in assay [2] amounted to 87 nM.

B2: ((N-Me)A)-IC+SRSLP-(Oic)-I-(Pen)+IPE-NH2 (peptide)
peptide: [NMeA]ICSRSLP[Oic]I[Pen]IPE-NH2
modifications: disulfide 3-11; N-terminus assumed
SMILES: CC[C@H](C)[C@H](NC(=O)[C@H](C)NC)C(=O)N[C@H]1CSSC(C)(C)[C@@H](C(=O)N[C@H](C(=O)N2CCC[C@H]2C(=O)N[C@@H](CCC(=O)O)C(N)=O)[C@@H](C)CC)NC(=O)[C@H]([C@@H](C)CC)NC(=O)[C@@H]2C[C@@H]3CCCC[C@@H]3N2C(=O)[C@@H]2CCCN2C(=O)[C@H](CC(C)C)NC(=O)[C@H](CO)NC(=O)[C@H](CCCNC(=N)N)NC(=O)[C@H](CO)NC1=O
As for B2, in assay [1], the “human MASP1 IC50” value was 3.3 nM. Also, the “human MASP2 IC50” value in assay [2] is 200 nM.

B3: AIC+SRSLP-(Oic)-I-(Pen)+IPE-OH (peptide)
peptide: AICSRSLP[Oic]I[Pen]IPE-OH
modifications: disulfide 3-11; N-terminus assumed
SMILES: CC[C@H](C)[C@H](NC(=O)[C@H](C)N)C(=O)N[C@H]1CSSC(C)(C)[C@@H](C(=O)N[C@H](C(=O)N2CCC[C@H]2C(=O)N[C@@H](CCC(=O)O)C(=O)O)[C@@H](C)CC)NC(=O)[C@H]([C@@H](C)CC)NC(=O)[C@@H]2C[C@@H]3CCCC[C@@H]3N2C(=O)[C@@H]2CCCN2C(=O)[C@H](CC(C)C)NC(=O)[C@H](CO)NC(=O)[C@H](CCCNC(=N)N)NC(=O)[C@H](CO)NC1=O
Regarding B3, in assay [1], the “human MASP1 IC50” value came out at 3.5 nM. Also, the “human MASP2 IC50” value in assay [2] was determined as 140 nM.

B4: (Orn)-IC+SRS-((tBu)A)-PPI-(Pen)+IP-OH (peptide)
peptide: [Orn]ICSRS[tBuAla]PPI[Pen]IP-OH
modifications: disulfide 3-11; N-terminus assumed
SMILES: CC[C@H](C)[C@H](NC(=O)[C@@H](N)CCCN)C(=O)N[C@H]1CSSC(C)(C)[C@@H](C(=O)N[C@H](C(=O)N2CCC[C@H]2C(=O)O)[C@@H](C)CC)NC(=O)[C@H]([C@@H](C)CC)NC(=O)[C@@H]2CCCN2C(=O)[C@@H]2CCCN2C(=O)[C@H](CC(C)(C)C)NC(=O)[C@H](CO)NC(=O)[C@H](CCCNC(=N)N)NC(=O)[C@H](CO)NC1=O
With B4, the “human MASP1 IC50” value in assay [1] came out at 3.6 nM. The “human MASP2 IC50” value in assay [2] was determined as 130 nM.

B5: ((N-Me)G)-IC+SRS-((tBu)A)-PPI-(Pen)+IP-(PEG4(19 atoms))-NH2 (peptide)
peptide: [Sar]ICSRS[tBuAla]PPI[Pen]IP[PEG5]-NH2
modifications: disulfide 3-11; N-terminus assumed
SMILES: CC[C@H](C)[C@H](NC(=O)CNC)C(=O)N[C@H]1CSSC(C)(C)[C@@H](C(=O)N[C@H](C(=O)N2CCC[C@H]2C(=O)NCCOCCOCCOCCOCCOCCC(N)=O)[C@@H](C)CC)NC(=O)[C@H]([C@@H](C)CC)NC(=O)[C@@H]2CCCN2C(=O)[C@@H]2CCCN2C(=O)[C@H](CC(C)(C)C)NC(=O)[C@H](CO)NC(=O)[C@H](CCCNC(=N)N)NC(=O)[C@H](CO)NC1=O
For B5, the “human MASP1 IC50” value in assay [1] turned out to be 3.6 nM. Further, in assay [2], the “human MASP2 IC50” value worked out at 60 nM.

B6: ((N-Me)A)-IC+SRSLP-(Oic)-I-(Pen)+IP-NH2 (peptide)
peptide: [NMeA]ICSRSLP[Oic]I[Pen]IP-NH2
modifications: disulfide 3-11; N-terminus assumed
SMILES: CC[C@H](C)[C@H](NC(=O)[C@H](C)NC)C(=O)N[C@H]1CSSC(C)(C)[C@@H](C(=O)N[C@H](C(=O)N2CCC[C@H]2C(N)=O)[C@@H](C)CC)NC(=O)[C@H]([C@@H](C)CC)NC(=O)[C@@H]2C[C@@H]3CCCC[C@@H]3N2C(=O)[C@@H]2CCCN2C(=O)[C@H](CC(C)C)NC(=O)[C@H](CO)NC(=O)[C@H](CCCNC(=N)N)NC(=O)[C@H](CO)NC1=O
Turning to B6, the “human MASP1 IC50” value in assay [1] worked out at 3.4 nM. The “human MASP2 IC50” value in assay [2] came out at 99 nM.

B7: ((N-Me)A)-IC+SRSLP-(Oic)-I-(Pen)+I-OH (peptide)
peptide: [NMeA]ICSRSLP[Oic]I[Pen]I-OH
modifications: disulfide 3-11; N-terminus assumed
SMILES: CC[C@H](C)[C@H](NC(=O)[C@H]1NC(=O)[C@H]([C@@H](C)CC)NC(=O)[C@@H]2C[C@@H]3CCCC[C@@H]3N2C(=O)[C@@H]2CCCN2C(=O)[C@H](CC(C)C)NC(=O)[C@H](CO)NC(=O)[C@H](CCCNC(=N)N)NC(=O)[C@H](CO)NC(=O)[C@@H](NC(=O)[C@@H](NC(=O)[C@H](C)NC)[C@@H](C)CC)CSSC1(C)C)C(=O)O
As for B7, in assay [1], the “human MASP1 IC50” value was found to be 3.4 nM. Besides, the “human MASP2 IC50” value in assay [2] worked out at 410 nM.

B8: ((N-Me)G)-IC+SRSLP-(Oic)-I-(Pen)+IP-(PEG5(22 atoms))-NH2 (peptide)
peptide: [Sar]ICSRSLP[Oic]I[Pen]IP[PEG6]-NH2
modifications: disulfide 3-11; N-terminus assumed
SMILES: CC[C@H](C)[C@H](NC(=O)CNC)C(=O)N[C@H]1CSSC(C)(C)[C@@H](C(=O)N[C@H](C(=O)N2CCC[C@H]2C(=O)NCCOCCOCCOCCOCCOCCOCCC(N)=O)[C@@H](C)CC)NC(=O)[C@H]([C@@H](C)CC)NC(=O)[C@@H]2C[C@@H]3CCCC[C@@H]3N2C(=O)[C@@H]2CCCN2C(=O)[C@H](CC(C)C)NC(=O)[C@H](CO)NC(=O)[C@H](CCCNC(=N)N)NC(=O)[C@H](CO)NC1=O
Take B8: the “human MASP1 IC50” value in assay [1] came to 3.5 nM. The “human MASP2 IC50” value in assay [2] was determined as 90 nM.

B9: TIC+SRS-((tBu)A)-PPI-(Pen)+IPD-NH2 (peptide)
peptide: TICSRS[tBuAla]PPI[Pen]IPD-NH2
modifications: disulfide 3-11; N-terminus assumed
SMILES: CC[C@H](C)[C@H](NC(=O)[C@@H](N)[C@@H](C)O)C(=O)N[C@H]1CSSC(C)(C)[C@@H](C(=O)N[C@H](C(=O)N2CCC[C@H]2C(=O)N[C@@H](CC(=O)O)C(N)=O)[C@@H](C)CC)NC(=O)[C@H]([C@@H](C)CC)NC(=O)[C@@H]2CCCN2C(=O)[C@@H]2CCCN2C(=O)[C@H](CC(C)(C)C)NC(=O)[C@H](CO)NC(=O)[C@H](CCCNC(=N)N)NC(=O)[C@H](CO)NC1=O
As to B9, in assay [1], the “human MASP1 IC50” value amounted to 3.6 nM. Further, the “human MASP2 IC50” value in assay [2] amounted to 74.5 nM.

B10: AIC+SRS-((tBu)A)-PPI-(Pen)+IPD-OH (peptide)
peptide: AICSRS[tBuAla]PPI[Pen]IPD-OH
modifications: disulfide 3-11; N-terminus assumed
SMILES: CC[C@H](C)[C@H](NC(=O)[C@H](C)N)C(=O)N[C@H]1CSSC(C)(C)[C@@H](C(=O)N[C@H](C(=O)N2CCC[C@H]2C(=O)N[C@@H](CC(=O)O)C(=O)O)[C@@H](C)CC)NC(=O)[C@H]([C@@H](C)CC)NC(=O)[C@@H]2CCCN2C(=O)[C@@H]2CCCN2C(=O)[C@H](CC(C)(C)C)NC(=O)[C@H](CO)NC(=O)[C@H](CCCNC(=N)N)NC(=O)[C@H](CO)NC1=O
Take B10: the “human MASP1 IC50” value in assay [1] is 1.2 nM. Moreover, the “human MASP2 IC50” value in assay [2] was 37 nM.

B11: ((N-Me)A)-IC+SRSLP-(Oic)-I-(Pen)+IPQ-NH2 (peptide)
peptide: [NMeA]ICSRSLP[Oic]I[Pen]IPQ-NH2
modifications: disulfide 3-11; N-terminus assumed
SMILES: CC[C@H](C)[C@H](NC(=O)[C@H](C)NC)C(=O)N[C@H]1CSSC(C)(C)[C@@H](C(=O)N[C@H](C(=O)N2CCC[C@H]2C(=O)N[C@@H](CCC(N)=O)C(N)=O)[C@@H](C)CC)NC(=O)[C@H]([C@@H](C)CC)NC(=O)[C@@H]2C[C@@H]3CCCC[C@@H]3N2C(=O)[C@@H]2CCCN2C(=O)[C@H](CC(C)C)NC(=O)[C@H](CO)NC(=O)[C@H](CCCNC(=N)N)NC(=O)[C@H](CO)NC1=O
For the molecule B11, the “human MASP1 IC50” value in assay [1] turned out to be 3.5 nM. The “human MASP2 IC50” value in assay [2] stood at 190 nM.
For AICSRSL[Pro‑D2″][Oic]I[Pen]IPD-OH (disulfide 3-11) [AIC+SRSL-(Pro-D2)-(Oic)-I-(Pen)+IPD-OH] the same measures were 2.13 nM and 126 nM.

B12: AIC+SRSLP-(Oic)-I-(Pen)+IPQ-NH2 (peptide)
peptide: AICSRSLP[Oic]I[Pen]IPQ-NH2
modifications: disulfide 3-11; N-terminus assumed
SMILES: CC[C@H](C)[C@H](NC(=O)[C@H](C)N)C(=O)N[C@H]1CSSC(C)(C)[C@@H](C(=O)N[C@H](C(=O)N2CCC[C@H]2C(=O)N[C@@H](CCC(N)=O)C(N)=O)[C@@H](C)CC)NC(=O)[C@H]([C@@H](C)CC)NC(=O)[C@@H]2C[C@@H]3CCCC[C@@H]3N2C(=O)[C@@H]2CCCN2C(=O)[C@H](CC(C)C)NC(=O)[C@H](CO)NC(=O)[C@H](CCCNC(=N)N)NC(=O)[C@H](CO)NC1=O
With B12, the “human MASP1 IC50” value in assay [1] was 3.3 nM. The “human MASP2 IC50” value in assay [2] stood at 140 nM.
